21 molecules from US20260258115A1 (MAPP BIOPHARMACEUTICAL, published 2026) can be followed below.

The assay has as its target RSV F on RSV-A2 virus (Respiratory syncytial virus (RSV-A2)). As to the kind of experiment: cell-based or functional assay.

B1: ADI-41324 (antibody, V domains shown)
VH: EVQLVESGGGLVQPGGSLRLSCAASGFTVSNNYMRWVRQAPGKGLEWVSVIYSSGSTDYADSVKGRFTISRDNSKNTLYLQMNSLRAEDTAVYYCARERTLFYYDSSGFFDYWGQGTLVTVSS
VL: ETTLTQSPGTLSLSPGERATLSCRASQSVDSSYLAWYQQKPGQAPRLLIYGASNRATGIPDRFSGSGSGTDFTLTISRLEPEDFAVYYCQQYGRSLTFGGGTKLEIK
For B1, the “Neutralization IC50 (RSV subtype A)” value was > 25 µg/mL.

B2: ADI-41311 (antibody, V domains shown)
VH: QVTLKQSGPALVKPTQTLTLTCTFSGFSLSTKRMGVSWIRQPPGKALEWLARIDWDDDKYYSTSLRTRLTISKDTSKNQVVLTMTDMDPVDTATYYCARIQPYTSGGYYSYYFDYWGQGTLVTVSS
VL: DIQVTQSPSSLSASIGDRVTITCRASQTIASYLNWYQQKPGKAPKLLIYIASSLQSGVPSRFSGSGSGTDFTLTISTLQPEDFATYYCQQSYGTPWTFGQGTKVEIK
Take B2: the “Neutralization IC50 (RSV subtype A)” value was > 25 µg/mL.

B3: ADI-41305 (antibody, V domains shown)
VH: QVTLKESGPGLVKPSQTLSLTCTVSGGSISGGGYYWSWIRQLPGKGLQWIGCIYDSGTTYYNPSLKSLVTISIDTSKNQFSLKLSSVTAADTAVYYCARGGSLDDFWSATWYFALWGRGTLVTVSS
VL: EIVLTQSPGTLSLSPGERATLSCRASQSVSSNYLAWYQQKPGQAPRLLIYGASSRATGIPDRFSGSGSGTDFTLTISRLEPEDFAFYYCQQYGRSPYTFGPGTKLEIK
With B3, the “Neutralization IC50 (RSV subtype A)” value was > 25 µg/mL.

B4: ADI-41319 (antibody, V domains shown)
VH: QVQLQESGPGLVKPSQTLSLTCTVSGGSISSGDYYWSWIRQPPGKGLEWIGYIFYSGTTYYNPSLKSRVTISLDTSQNQFSLKLSSVTAADTAVYYCARDGDEVDYVWGTRRYLDSWGRGTLVTVSS
VL: EIVLTQSPGTLSLSPGERATLSCRASQSVSSRYLAWYQQKPGQAPRLLIHGASSRATGIPDRFSGSGSGTDFTLTISRLEPEDFAVYYCLQYGSLPKTFGQGTKVEIK
Consider B4, for which the “Neutralization IC50 (RSV subtype A)” value is > 25 µg/mL.

B5: ADI-41304 (antibody, V domains shown)
VH: EVQLVESGPGLVKPSQTLSLTCTVSGGSIRSHDYYWSWIRQPPGKGLEWIGYSYYSGSTYYNPSLKSRVIISLDTSKNQFSLNLTSVTAADTAMYYCARDRPHTSSWIPGWFDPWGQGTLVTVSS
VL: SYELTQPPSASGTPGQRVTISCSGSSSNIGSNTVSWYQQFPGKAPKLLIYSNNERPSGGPDRFSGSKSGTSASLAIGGLQSEDEANYYCAAWDDSLYAVVFGGGTKLTVL
B5: the “Neutralization IC50 (RSV subtype A)” value is > 25 µg/mL.

B6: ADI-41318 (antibody, V domains shown)
VH: EVQLLESGAEVKKPGSSVRVSCKAFGGTFSSYAFSWVRQAPGQGLEWMGGITPMFGTENYAPNFQGRVTITADKLTTTVYMELSRLRSEDSAVYYCAREGGRLGTTMGAFDMWGQGTMVTVSS
VL: DIRLTQSPSSLSASVGDRVTITCRASHGISSALAWYQQRPGRVPQVLIFHASTLESGVPSRFSGSGSGTDFTLTISSLQPEDFATYYCQQFNSYPYTFGQGTKVEIK
For B6, the “Neutralization IC50 (RSV subtype A)” value was > 25 µg/mL.

B7: ADI-41317 (antibody, V domains shown)
VH: EVQLVESGGGLVQPGGSLRLSCEASRFKFSTFWMAWVRQAPGKGLEWVANIKQDGSETYYLDSVKGRFTISRDNAKNSLFLQMKSLRAEDTAVYYCAGLWWGDLENWFDPWGQGTLVTVSS
VL: QSVLTQPPSVSGAPGQRVTISCTGSSSNLGTGFDVHWYRQLPGTAPQLLIYGSTNRPSGVPDRFSGSKYGTSASLAITGLQAEDEADYYCQSYDSNLRAYVFGTVTKVTVL
In the case of B7, the “Neutralization IC50 (RSV subtype A)” value was 4.66 µg/mL.

B8: ADI-41322 (antibody, V domains shown)
VH: QVQLVQSGAEVKKPGSSVRVSCKASGGSFSSYATSWVRQAPGQGLEWMGGIIPMYDAVNYAQKFQGRVTITADESTTTAYMELSSLRSEDTAVYYCARSSGYTGTNFFDYWGQGTLVTVSS
VL: DIQMTQSPSSVSASVGDRVTITCRASQDISSWLAWYQQKPGKAPKLLIYTASSLQSGVPSRFSGSGSGTDFTLTISRLQPEDFATYYCQQANSFPRVTFGGGTKVEIK
Turning to B8, the “Neutralization IC50 (RSV subtype A)” value is > 25 µg/mL.

B9: ADI-41316 (antibody, V domains shown)
VH: QVQLVQSGGGVVQPGRSLRLSCAASGFTFNNYGMHWVRQAPGKGLEWVAVLSFDGINKYYADSARGRFTISRDNSKNTLYLQMNSLRAEDTALYYCAKDRQEYSSGWTHDACDIWGQGTMVTVSS
VL: EIVMTQSPATLSVSPGERATLSCRASQNVNNNLAWYQQNPGQAPRLLIFGASTRATGIPARFSGSGSGTEFTLTISSLQSEDFAVYYCQQYNNWPRTFGQGTKLEIK
Consider B9, for which the “Neutralization IC50 (RSV subtype A)” value was > 25 µg/mL.

B10: ADI-41313 (antibody, V domains shown)
VH: EVQLVESGAEVKKPGASVKVSCKASGYTFNNYDISWVRQAPGQGLEWMGWISTYNGNTNYAQKFQGRATMTTDTSTTTAYMELRSLRSDDSAIYYCARVYCGGDCHNPFFLYFDLWGRGTLVTVSS
VL: SYVLTQPLSVSVALGQTARITCGGNNIGSKSVHWYQQKPGQAPLLVIYRDNNRPSGIPERFSGSTSGNTATLTISRAQAGDEADYSCQVWDNSDWVFGGGTKLTVL
In the case of B10, the “Neutralization IC50 (RSV subtype A)” value was > 25 µg/mL.

B11: ADI-41306 (antibody, V domains shown)
VH: QVQLVESGPRLVKPSQTLSLTCTVSGGSIYRGDYDWNWIRQPPGKGLEWIGYISYTGNTHYNSSLKSRLSISADTSGTHFSLKLSSVTAADTAIYYCARDVGYGGNAAHYYYYAMDVWGQGTTVTVSS
VL: ETTLTQSPATLSLSPGERATLSCRASQSVGSSLAWYQQKVGQAPRLLIYDASSRVTGIPARFSGSGSGTDFTLTISSLEPGDFAVYYCQQRSNSLTFGGGTKVEIK
For the molecule B11, the “Neutralization IC50 (RSV subtype A)” value was 0.173 µg/mL.

B12: ADI-41309 (antibody, V domains shown)
VH: EVQLLESGPGLVKPSQTLSLTCTVSGGSISSGDYYWSWVRQPPGKGLEWIGNIYHSGSTYYKPSLKSRVSISLDTSKNQFSLKLSSVTAADTAIYYCARDGGENYVWGTFRFLDVWGQGTTVTVSS
VL: DIRLTQSPGTLSLSPGERATLSCRASQSVSSSYLAWYQQKPGQAPRLLIYGVSSRATGIPDRFSGSGSGTDFTLTINRLEPEDFALYHCQQYGSSPHTFGQGTKVEIK
Turning to B12, the “Neutralization IC50 (RSV subtype A)” value is > 25 µg/mL.

B13: ADI-41315 (antibody, V domains shown)
VH: EVQLLESGPGLVKPSETLSLTCAVSGGSISNYYWSWIRQPPGKGLEWIAYISYSGTTNYNPSLESRVTISVDTSKNQFSLKLNSVTAADTAVYYCARHEFLVLPDVWGQGTLVTVSS
VL: ETTLTQSPGTLSLSPGERATLSCRASQSVSSTFLAWYQQKPGQAPRLLIYAASSRATGIPDRFSGSGSGTDFTLIISRLEPEDFAVYYCQQYRSSPFSFGPGTKVEIK
Turning to B13, the “Neutralization IC50 (RSV subtype A)” value is > 25 µg/mL.

B14: ADI-41308 (antibody, V domains shown)
VH: EVQLVESGPGLVKPSQTLSLTCAISGDSVSSNSAAWNWIRQSPSRGLERMGRTYYRSKWYDDYAVSVKSRIIINPDTSKNQFSLQLNSVTPEDTAVYYCARGISTFGGVIYALEIWGQGTMVTVSS
VL: SYVLTQPASVSGSPGQSITISCTGLTSDVGGYNFVSWYQQHPGKAPKLIIYDVSHRPSGVSNRFSGSESGNTASLTISGLQAEDEAHYYCSSYTRTSIVVFGGGTKLTVL
On to B14, for which the “Neutralization IC50 (RSV subtype A)” value is > 25 µg/mL.

B15: ADI-41307 (antibody, V domains shown)
VH: QVQLVESGGGLVKPGGSLRLSCAASGFPLSPYALNWVRQAPGKGLEWVSSITSSSAYIYYADSVKGRFTVSRDNPTNSLYLQMNSLRAEDTAVYYCARTIPQHYYDNNGDYYNYGMDVWGQGTTVTVSS
VL: DIVLTQSPATLSVSPGQRITLSCRASQTVRSNLAWYQQKPGQPPRLLIYGASTRATGVPARFTGSGSGTEFTLTITSLQSDDFAVYYCHQYNDRPLTFGPGTKVEIK
With B15, the “Neutralization IC50 (RSV subtype A)” value was > 25 µg/mL.

B16: ADI-41303 (antibody, V domains shown)
VH: QVQLVQSGGGLVRPGGSLRVSCAASGFIFNNYALTWVRQAPGKGLEWVSAISGSGSSTYYADSVKGRFTISRENSNNRLYLQLSGLRAEDTAVYFCARVRGLVWFEGRIDPYPNVFDYWGQGTLVTVSS
VL: DIVLTQSPGTLSLSPGERATLSCRASQSVSNDYLAWYQQKPGQAPRLLIYDASSRAIGIPDRFSGSGSGTDFTLIISRLEPEDFAVYYCHHPGKFGQGTKVEIK
With B16, the “Neutralization IC50 (RSV subtype A)” value is > 25 µg/mL.

B17: ADI-41323 (antibody, V domains shown)
VH: EVQLLESGGGVVRPGGSLRLSCAASGFTFDDYAMGWVRQAPGKGLEWVSGITWNAGSTAYAGSVKGRFTISRDNAKNSLFLQMNSLRAEDTAFYLCARHVDSSGPVARHFDYWGQGTLVTVSS
VL: NFMLTQPHSVSESPGKTVTISCTRSSGSIARNYVQWYQQRPGSAPTIVIYEDNQRPSGVPDRFSGSIDSSSNSASLTISGLKTEDEADYYCQSYDPSNVVFGGGTKLTVL
In the case of B17, the “Neutralization IC50 (RSV subtype A)” value is > 25 µg/mL.

B18: ADI-41314 (antibody, V domains shown)
VH: QVQLVQSGAEVKKPGSSVKVSCKAFGGIFSSYAISWVRQAPGQGLEWMGGIIPIFGTTKYAQKFQGRVTITADKSTSTVYMEVSSLRFEESAVYFCARAYCSGGTWYGGADYWGQGTLVTVSS
VL: QSVLTQPPSVSVSPGQTARITCSGDVLPKQYAYWYQQKPGQAPLLVMYKDTERPSGIPERFSGSSSVTAVTLTISGVQAEDEADYYCQSADSTQELFGGGTKLTVL
B18: the “Neutralization IC50 (RSV subtype A)” value is > 25 µg/mL.

B19: ADI-41312 (antibody, V domains shown)
VH: QVQLQESGPGLVKPSGTLSLTCAVSGGSISSSNWWNWVRQPPGKGLEWIGEIYHSGRTNYNPSLKSRVSISIDKFKSQFSLNLNSVTAADTAVYYCARDLPGTPYDIVPGYYPGLRRHDAFDIWGQGTMVTVSS
VL: not shown
In the case of B19, the “Neutralization IC50 (RSV subtype A)” value was > 25 µg/mL.

B20: ADI-41310 (antibody, V domains shown)
VH: QVQLVQSGVEVKKPGESLKISCRGSGYSFYNYWIAWVRQKPGKGLEYMGTIYLDDSDTIYSPSFQGEVTISADKSINTAYLQWNSLKASDTANYYCARQMDFYFDVWGRGTLVTVSS
VL: SYELTQPPSVSVSPGQTARITCSGDPLPRESAYWYQQKPGQAPVVVIFNDIERPLGIPGRFSGSRSGATATLTINGAQAEDEADYYCQSADSRKTFVFGAGTKLTVL
B20: the “Neutralization IC50 (RSV subtype A)” value is > 25 µg/mL.

B21: ADI-41320 (antibody, V domains shown)
VH: QVQLVQSGVEVKKPGESLKISCRGFGYSAYNYWIAWVRQKPGKGLEYMGTIYLDDSDTIYSPSFQGEVTISADRSINTAYLQWNSLKASDTANYYCARQMDFYFDVWGRGTLVTVSS
VL: QSVLTQPPSVSVSPGQTARITCSGDPLPRESAYWYQQKPGQAPVVVIFNDIERPLGIPARFSGSRSGTTVTLTISGAQAEDEADYYCQSADSRKTFVFGPGTKLTVL
As for B21, the “Neutralization IC50 (RSV subtype A)” value was > 25 µg/mL.
